Experiments:
GST-CCaaX, P01120 = molecular target: T1, GST-CCaaX, P01120
T1 chain: CCIIS

[1] = molecular target: T2, GST-Ras2(HV)CCaaX, P01120
T2 chain: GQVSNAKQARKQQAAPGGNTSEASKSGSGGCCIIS

[2] = molecular target: H-Ras (N-terminal His6-tagged fusion), P01112
GST-Ras2CCaaX, P01120 = molecular target: T3, GST-Ras2CCaaX, P01120
T3 chain: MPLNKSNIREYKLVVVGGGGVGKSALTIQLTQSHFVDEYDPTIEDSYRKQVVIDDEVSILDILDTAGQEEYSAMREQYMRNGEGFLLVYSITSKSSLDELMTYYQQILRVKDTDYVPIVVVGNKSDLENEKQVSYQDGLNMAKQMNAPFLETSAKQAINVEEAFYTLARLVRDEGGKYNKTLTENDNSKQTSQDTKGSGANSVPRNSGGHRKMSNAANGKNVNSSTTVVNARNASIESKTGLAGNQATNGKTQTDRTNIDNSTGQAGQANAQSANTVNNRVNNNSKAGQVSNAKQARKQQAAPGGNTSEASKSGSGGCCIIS

Sequence of H-Ras (N-terminal His6-tagged fusion), P01112 (P01112 whole entry, looked up, the tested form may be a part): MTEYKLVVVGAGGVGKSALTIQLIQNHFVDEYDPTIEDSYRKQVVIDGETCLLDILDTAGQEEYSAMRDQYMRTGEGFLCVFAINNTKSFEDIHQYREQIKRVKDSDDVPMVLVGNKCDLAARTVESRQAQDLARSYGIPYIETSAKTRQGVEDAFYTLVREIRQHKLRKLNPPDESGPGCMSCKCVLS

B1: Erf2p/Erf4p complex (GST-Erf4p/FLAG-Erf2p on GSH beads) (protein)
chain 1: MALVSRRSTRSESTSITKEEHTGEGSLTKLFFRWLVTLEGDQDINDGKGYISLPNVSNYIFFLGGRFRTVKGAKPLWLGVLLAIVCPMVLFSIFEAHKLWHTQNGYKVLVIFFYYFWVITLASFIRTATSDPGVLPRNIHLSQLRNNYQIPQEYYNLITLPTHSSISKDITIKYCPSCRIWRPPRSSHCSTCNVCVMVHDHHCIWVNNCIGKRNYRFFLIFLLGAILSSVILLTNCAIHIARESGGPRDCPVAILLLCYAGLTLWYPAILFTYHIFMAGNQQTTREFLKGIGSKKNPVFHRVVKEENIYNKGSFLKNMGHLMLEPRGPSFVSARKPHEAGDWRFMDLSPAHSFEKIQKI
chain 2: MCDSHQKEEDNANTSERALFFNYHEFSYSFYEDLGSEDAKPTEHDEDHKLCITHFPNVYAARGSAEFQVTRVVRVPRRFDESRSSLETPQFSTQLPGSEPAAIVGDDGTSFVRCGRYDIGDHVFGCSSVSPLSEYLSAAELAEVVHRVNGFLLREEGEVFGWRNLSGLLLDMLTGGLWSWVLGPLLSRPVFQESLALEQYVAQLNSPGGLLHERGVRLVLPRRSGCLSLDFVVPRPK
- in vitro palmitoylation relative to GST-(HV)CCaaX (GST-CCaaX, P01120): reduced 10-fold compared with GST-(HV)CCaaX
- palmitate transferred (PAT assay) (Myristoylated Gi1): 55 vs 2720 pmol palmitate transferred/min/\u00b5mol substrate
- palmitoylation level relative to yeast Ras2p (Myristoylated Gi1): ~5% that of yeast Ras2p
- acceleration of the spontaneous rate of palmitoylation [1]: ~160-fold
- palmitate incorporated into the Ras2p substrate (in vitro PAT assay, [3H]palmitoyl-CoA) [1]: 0.14 pmol/min
- palmitate transferred (PAT assay) [1]: 2720 pmol palmitate transferred/min/\u00b5mol substrate
- palmitate transferred (PAT assay) [2]: 40 vs 2720 pmol palmitate transferred/min/\u00b5mol substrate
- palmitoylation level relative to Ras2p [2]: levels much lower (5%) than the proposed natural substrate, Ras2p
- in vitro palmitoylation (PAT assay) (GST-Ras2CCaaX, P01120): palmitoylated GST(HV)CCIIS to levels similar to full-length GST-Ras2CCIIS
